Columns and labels:
[1] = biological target: T1, tissue-type plasminogen activator (tPA) (human, UniProt P00750 36-562); assay: ELISA, therapeutic coated on Nunc Immobilizer plate, concentration series of tPA, one-site binding fit
T1 construct: Full-length commercial tPA; also called Actilyse; Alteplase
Experimental: Plates were washed twice with Tris buffered saline pH 7.2 containing 0.1% Tween20 (TBST) and blocked with PBS containing 1% Tween20 for 1 hour at room temperature. […] Plates were washed five times with TBST and incubated with peroxidase labeled anti-mouse immunoglobulins (RAMPO; DAKOCytomation, Glostrup, Denmark) diluted 1:3000 in PBST for 30 minutes at room temperature. Plates were washed five times with PBS 0.1% Tween20, and stained with 100 μL/well of tetramethyl-benzidine (TMB) substrate (Biosource Europe, Nivelles, Belgium). The reaction was terminated with 50 μL/well of 2 M H₂SO₄ and substrate conversion was read at 450 nm on a Spectramax340 microplate reader. Curves were fitted with a one-site binding model (GraphPad Prism version 4.02 for Windows, Graphpad Software, Calif., USA) from which Kd and Bmax were determined.

[2] = biological target: T2, factor XII (purified human factor XII from plasma) (human, UniProt P00748 20-615); assay: ELISA, factor XII coated, concentration series of recombinant β2GPI
T2 construct: also called FXII
T2 sequence (looked up): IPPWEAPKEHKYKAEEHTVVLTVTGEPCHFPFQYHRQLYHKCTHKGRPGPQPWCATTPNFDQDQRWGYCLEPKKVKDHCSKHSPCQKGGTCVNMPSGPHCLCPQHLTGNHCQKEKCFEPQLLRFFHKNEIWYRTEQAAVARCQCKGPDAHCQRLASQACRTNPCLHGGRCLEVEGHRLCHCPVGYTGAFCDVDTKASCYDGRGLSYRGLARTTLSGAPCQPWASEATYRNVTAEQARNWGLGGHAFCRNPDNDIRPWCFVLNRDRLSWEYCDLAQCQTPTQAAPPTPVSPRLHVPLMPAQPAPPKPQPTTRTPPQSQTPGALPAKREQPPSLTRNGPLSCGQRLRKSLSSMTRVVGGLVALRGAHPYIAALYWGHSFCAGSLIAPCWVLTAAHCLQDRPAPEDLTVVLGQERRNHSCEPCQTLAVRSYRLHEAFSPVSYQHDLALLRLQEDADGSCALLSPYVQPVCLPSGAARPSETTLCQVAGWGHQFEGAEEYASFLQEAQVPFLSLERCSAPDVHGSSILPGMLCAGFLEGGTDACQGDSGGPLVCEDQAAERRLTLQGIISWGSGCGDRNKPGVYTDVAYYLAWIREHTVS

[3] = biological target: T1, tissue-type plasminogen activator (tPA); assay: ELISA, tPA immobilized, concentration series of recombinant β2GPI
Experimental: (§1) Binding of β₂GPI was assessed with monoclonal antibody 2B2²².
(§2) The positive control was amyloid fibrin peptide FP13. […] C. […] Eluted fractions are analyzed on Western blot after SDS-PA electrophoresis. […] Signals are corrected for background fluorescence of CL, DXS, ThT and buffer.

[4] = biological target: T2, factor XII (purified human factor XII …); assay: ELISA, factor XII immobilized, concentration series of recombinant β2GPI
Experimental: as §1, §2

[5] = biological target: T1, tissue-type plasminogen activator (tPA); assay: ELISA, tPA coated, concentration series of recombinant β2GPI
Experimental: as §1, §2

T1 sequence (P00750 36-562 limits assumed): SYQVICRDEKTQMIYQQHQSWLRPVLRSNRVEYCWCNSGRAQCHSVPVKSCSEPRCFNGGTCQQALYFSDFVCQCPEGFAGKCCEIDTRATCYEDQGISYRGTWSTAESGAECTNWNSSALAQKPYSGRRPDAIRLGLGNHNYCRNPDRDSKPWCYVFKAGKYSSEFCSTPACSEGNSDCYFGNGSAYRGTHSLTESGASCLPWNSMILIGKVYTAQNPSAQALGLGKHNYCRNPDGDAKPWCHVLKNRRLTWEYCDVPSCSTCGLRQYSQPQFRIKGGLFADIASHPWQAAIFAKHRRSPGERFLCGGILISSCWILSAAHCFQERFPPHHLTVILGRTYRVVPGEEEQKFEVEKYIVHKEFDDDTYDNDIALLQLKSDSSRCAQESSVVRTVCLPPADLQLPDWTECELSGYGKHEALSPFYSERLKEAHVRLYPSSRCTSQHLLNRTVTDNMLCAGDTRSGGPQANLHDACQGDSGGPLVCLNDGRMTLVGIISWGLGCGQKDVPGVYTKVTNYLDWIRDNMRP

B1: abciximab (ReoPro) (Fab, V domains shown)
VH: EVQLQQSGTVLARPGASVKMSCEASGYTFTNYWMHWVKQRPGQGLEWIGAIYPGNSDTSYIQKFKGKAKLTAVTSTTSVYMELSSLTNEDSAVYYCTLYDGYYVFAYWGQGTLVTVSA
VL: EIVLTQSPVTLSVTPGDSVSLSCRASRDISNNLHWFQQTSHESPRLLIKYASQSMSGIPSRFSGSGSGTDFTLSINSVETEDFGMYFCQQTNSWPYTFGGGTKLEIK
[1]
  Kd: 216 nM

B2: recombinant human β2-glycoprotein I (insect cells) (other, UniProt P02749 20-345, looked up)
chain: GRTCPKPDDLPFSTVVPLKTFYEPGEEITYSCKPGYVSRGGMRKFICPLTGLWPINTLKCTPRVCPFAGILENGAVRYTTFEYPNTISFSCNTGFYLNGADSAKCTEEGKWSPELPVCAPIICPPPSIPTFATLRVYKPSAGNNSLYRDTAVFECLPQHAMFGNDTITCTTHGNWTKLPECREVKCPFPSRPDNGFVNYPAKPTLYYKDKATFGCHDGYSLDGPEEIECTKLGNWSAMPSCKASCKVPVKKATVVYQGERVKIQEKFKNGMLHGDKVSFFCKNKEKKCSYTEDAQCIDGTIEVPKCFKEHSSLAFWKTDASDVKPC
notes: also called recombinant β2GPI; rβ2GPI
[2]
  Kd: 20 nM
[3]
  Kd: 2.3 µg/mL
[4]
  Kd: 0.9 µg/mL
[5]
  Kd: 51 nM

B3: human coagulation factor VIII (FVIII) (Aafact) (other)
chain 1: ATRRYYLGAVELSWDYMQSDLGELPVDARFPPRVPKSFPFNTSVVYKKTLFVEFTDHLFNIAKPRPPWMGLLGPTIQAEVYDTVVITLKNMASHPVSLHAVGVSYWKASEGAEYDDQTSQREKEDDKVFPGGSHTYVWQVLKENGPMASDPLCLTYSYLSHVDLVKDLNSGLIGALLVCREGSLAKEKTQTLHKFILLFAVFDEGKSWHSETKNSLMQDRDAASARAWPKMHTVNGYVNRSLPGLIGCHRKSVYWHVIGMGTTPEVHSIFLEGHTFLVRNHRQASLEISPITFLTAQTLLMDLGQFLLFCHISSHQHDGMEAYVKVDSCPEEPQLRMKNNEEAEDYDDDLTDSEMDVVRFDDDNSPSFIQIRSVAKKHPKTWVHYIAAEEEDWDYAPLVLAPDDRSYKSQYLNNGPQRIGRKYKKVRFMAYTDETFKTREAIQHESGILGPLLYGEVGDTLLIIFKNQASRPYNIYPHGITDVRPLYSRRLPKGVKHLKDFPILPGEIFKYKWTVTVEDGPTKSDPRCLTRYYSSFVNMERDLASGLIGPLLICYKESVDQRGNQIMSDKRNVILFSVFDENRSWYLTENIQRFLPNPAGVQLEDPEFQASNIMHSINGYVFDSLQLSVCLHEVAYWYILSIGAQTDFLSVFFSGYTFKHKMVYEDTLTLFPFSGETVFMSMENPGLWILGCHNSDFRNRGMTALLKVSSCDKNTGDYYEDSYEDISAYLLSKNNAIEPRSFSQNSRHPSTRQKQFNATTIPENDIEKTDPWFAHRTPMPKIQNVSSSDLLMLLRQSPTPHGLSLSDLQEAKYETFSDDPSPGAIDSNNSLSEMTHFRPQLHHSGDMVFTPESGLQLRLNEKLGTTAATELKKLDFKVSSTSNNLISTIPSDNLAAGTDNTSSLGPPSMPVHYDSQLDTTLFGKKSSPLTESGGPLSLSEENNDSKLLESGLMNSQESSWGKNVSSTESGRLFKGKRAHGPALLTKDNALFKVSISLLKTNKTSNNSATNRKTHIDGPSLLIENSPSVWQNILESDTEFKKVTPLIHDRMLMDKNATALRLNHMSNKTTSSKNMEMVQQKKEGPIPPDAQNPDMSFFKMLFLPESARWIQRTHGKNSLNSGQGPSPKQLVSLGPEKSVEGQNFLSEKNKVVVGKGEFTKDVGLKEMVFPSSRNLFLTNLDNLHENNTHNQEKKIQEEIEKKETLIQENVVLPQIHTVTGTKNFMKNLFLLSTRQNVEGSYDGAYAPVLQDFRSLNDSTNRTKKHTAHFSKKGEEENLEGLGNQTKQIVEKYACTTRISPNTSQQNFVTQRSKR
chain 2: EITRTTLQSDQEEIDYDDTISVEMKKEDFDIYDEDENQSPRSFQKKTRHYFIAAVERLWDYGMSSSPHVLRNRAQSGSVPQFKKVVFQEFTDGSFTQPLYRGELNEHLGLLGPYIRAEVEDNIMVTFRNQASRPYSFYSSLISYEEDQRQGAEPRKNFVKPNETKTYFWKVQHHMAPTKDEFDCKAWAYFSDVDLEKDVHSGLIGPLLVCHTNTLNPAHGRQVTVQEFALFFTIFDETKSWYFTENMERNCRAPCNIQMEDPTFKENYRFHAINGYIMDTLPGLVMAQDQRIRWYLLSMGSNENIHSIHFSGHVFTVRKKEEYKMALYNLYPGVFETVEMLPSKAGIWRVECLIGEHLHAGMSTLFLVYSNKCQTPLGMASGHIRDFQITASGQYGQWAPKLARLHYSGSINAWSTKEPFSWIKVDLLAPMIIHGIKTQGARQKFSSLYISQFIIMYSLDGKKWQTYRGNSTGTLMVFFGNVDSSGIKHNIFNPPIIARYIRLHPTHYSIRSTLRMELMGCDLNSCSMPLGMESKAISDAQITASSYFTNMFATWSPSKARLHLQGRSNAWRPQVNNPKEWLQVDFQKTMKVTGVTTQGVKSLLTSMYVKEFLISSSQDGHQWTLFFQNGKVKVFQGNQDSFTPVVNSLDPPLLTRYLRIHPQSWVHQIALRMEVLGCEAQDLY
[1]
  Kd: 230 nM
